The target in experiment [1] is T1, peptide 13 of the 45 overlapping peptides of rEgP29 (Echinococcus granulosus).
T1 construct: residues 61-75 of P29 of Echinococcus granulosus, one of 45 overlapping 15-mers (overlap of 10 residues); source: synthetic peptide
T1 chain: NIASKVADAFQKNKE
The experiment can be described thus: ELISA; peptide scan by indirect ELISA; 45 overlapping 15-mer peptides of rEgP29 coated at 5 ug/mL; purified mAb at 1:5,000. As to conditions: both partners purified. (In general: ELISA stands for enzyme-linked immunosorbent assay.)

Experiment [2] addresses T2, recombinant Echinococcus granulosus P29 (Echinococcus granulosus, UniProt Q9U8G7).
T2 construct: P29, 29 kDa antigen of Echinococcus granulosus, GenBank AAD53328.1; 238 amino acids by the BLAST comparison with E. multilocularis P29 (235/238); band at about 30 kDa on SDS-PAGE; also called rEgP29; rEg.P29
The experiment can be described thus: SPR; called SPR by the paper; mAb 4G10F4 (5 ug/mL) captured on the AMC probe, antigen P29 at 500, 250, 125, 62.5, 31.3 and 0 nM in PBST; Octet RH16 (Sartorius), Data Analysis 12.0. To be noted: both partners purified. (In SPR one partner is held on a chip, and binding of the other changes the refractive index at the surface.)

As a reminder, the Kd is the constant that tells how readily two partners part at equilibrium. A word on the koff: it is a measure of how fast the partners let go of each other. A word on the kon: it is the rate constant with which the complex forms.

T2 sequence (Q9U8G7 whole entry): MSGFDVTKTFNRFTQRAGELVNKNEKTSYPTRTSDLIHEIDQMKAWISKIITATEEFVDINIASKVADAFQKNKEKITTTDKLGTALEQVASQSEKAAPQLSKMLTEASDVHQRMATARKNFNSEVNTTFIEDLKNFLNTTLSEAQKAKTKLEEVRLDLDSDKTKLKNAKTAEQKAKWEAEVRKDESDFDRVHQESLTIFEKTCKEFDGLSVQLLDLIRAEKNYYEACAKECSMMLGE

B1: 4G10F4 monoclonal antibody against rEgP29 (antibody, V domains shown)
VH: EVKLEESGPGLVAPSQSLSITCTVSGFSLFSYAVHWVRQPPGKGLEWLGVIWAGGSTDYNSALMSRLSISKDNSKSQVFLKMNSLQTDDTAMYYCASIHYYGYWHFDVWGAGTTVTVSS
VL: DIVMTQSPLSLPVSLGDQASISCRSSQSIVHSNGNTYLEWYLQKPGQSPKLLIYKVSNRFSGVPDRFSGSGSGTDFTLKISRVEAEDLGVYYCFQGSHVPYTFGGGTKLEIK
notes: Mouse IgG1 (subtype by ELISA); also called 4G10F4 mAb; anti-P29 mAb; source: mouse hybridoma (BALB/c splenocytes fused with Sp2/0), culture supernatant; also purified from serum-free supernatant (protein G column)
On to B1, for which the binding result in experiment [1] is listed as “binds”. In experiment [2], the Kd came to 6.29 nM, the off-rate (koff) was 0.00049 s⁻¹ and the kon was found to be 77800 M⁻¹ s⁻¹.

(Values after PMC11376570, “Enhancing the therapeutic potential of P29 protein-targeted monoclonal antibodies in the management of alveolar echinococcosis through CDC-mediated mechanisms” (PLOS Pathogens, 2024).)
